Source: patent publication US20260167699A1 (Chugai, published 2026)

target: T1, FcγRIIIaV (human, UniProt P08637 17-208); assay: SPR (Biacore), antibody captured, FcγR as analyte, 1:1 Langmuir fit
T1 construct: extracellular domain
T1 sequence (P08637 other isoform, or with tags, fused parts or gaps): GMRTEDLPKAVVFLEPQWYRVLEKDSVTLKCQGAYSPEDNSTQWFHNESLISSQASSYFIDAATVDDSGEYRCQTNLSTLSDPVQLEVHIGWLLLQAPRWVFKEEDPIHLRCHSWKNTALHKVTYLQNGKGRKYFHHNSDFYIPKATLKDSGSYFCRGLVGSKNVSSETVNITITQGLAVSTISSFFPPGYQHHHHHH

Binder	Kd
HI076-L2-3 (antibody, human IgG1, kappa, heterodimerized anti-EREG antibody: altered H240-Hl076 chain (Gly/Ser peptide in loop) with H240-Kn125 and L73-k0; also called Hl076-L2-3) heavy 1: QDQLVQSGAEVKKPGASVKVSCKASGFNIKDTYIQWVRQAPGQGLEWMGRIDPLRKQTKYREKFEGRVTITADTSTNTAYMELSSLRSEDTAVYYCVRSGREFDYWGQGTLVTVSSASTKGPSVFPLAPSSKSTSGGTAALGCLVKDYFPEPVTVSWNSGALTSGVHTFPAVLQSSGLYSLSSVVTVPSSSLGTQTYICNVNHKPSNTKVDKKVEPKSCDKTHTCPPCPAPELLGGPSVFLFPPKPKDTLMISRTPEVTCVVVDVSHGGSEEPEVKFNWYVDGVEVHNAKTKPREEQYNSTYRVVSVLTVLHQDWLNGKEYKCKVSNDALPMPIEETISKAKGQPREPQVYTLPPSRCELTKNQVSLSCAVKGFYPSDIAVEWESNGQPENNYKTTPPVLDSDGSFFLVSKLTVDKSRWQQGNVFSCSVMHEALHNHYTQKSLSLSP heavy 2: QDQLVQSGAEVKKPGASVKVSCKASGFNIKDTYIQWVRQAPGQGLEWMGRIDPLRKQTKYREKFEGRVTITADTSTNTAYMELSSLRSEDTAVYYCVRSGREFDYWGQGTLVTVSSASTKGPSVFPLAPSSKSTSGGTAALGCLVKDYFPEPVTVSWNSGALTSGVHTFPAVLQSSGLYSLSSVVTVPSSSLGTQTYICNVNHKPSNTKVDKKVEPKSCDKTHTCPPCPAPEYQWGPMVFLFPPKPKDTLMISRTPEVTCVVVDVSDEEPEVKFNWYVDGVEVHNAKTKPREEQYNATYRVVSVLTVLHQDWLNGKEYKCKVSNKALPAPIEKTISKAKGQPREPQVCTLPPSRDELTKNQVSLWCLVKGFYPSDIAVEWESNGQPENNYKTTPPVLDSDGSFFLYSKLTVDKSRWQQGNVFSCSVMHEALHNHYTQKSLSLSP light: DIQMTQSPSSLSASVGDRVTITCRASQDIHKYIAWYQQKPGQAPRLLIQYTSTLQPGVPSRFSGSGSGTDYTFTISSLQPEDIATYYCLQYEQLRTFGGGTKVEIKRTVAAPSVFIFPPSDEQLKSGTASVVCLLNNFYPREAKVQWKVDNALQSGNSQESVTEQDSKDSTYSLSSTLTLSKADYEKHKVYACEVTHQGLSSPVTKSFNRGEC	2.3 nM
HI076-L2-9 (antibody, human IgG1, kappa, heterodimerized anti-EREG antibody: altered H240-Hl076 chain (Gly/Ser peptide in loop) with H240-Kn125 and L73-k0; also called Hl076-L2-9) heavy 1: QDQLVQSGAEVKKPGASVKVSCKASGFNIKDTYIQWVRQAPGQGLEWMGRIDPLRKQTKYREKFEGRVTITADTSTNTAYMELSSLRSEDTAVYYCVRSGREFDYWGQGTLVTVSSASTKGPSVFPLAPSSKSTSGGTAALGCLVKDYFPEPVTVSWNSGALTSGVHTFPAVLQSSGLYSLSSVVTVPSSSLGTQTYICNVNHKPSNTKVDKKVEPKSCDKTHTCPPCPAPELLGGPSVFLFPPKPKDTLMISRTPEVTCVVVDVSHGGSGGSGGSEEPEVKFNWYVDGVEVHNAKTKPREEQYNSTYRVVSVLTVLHQDWLNGKEYKCKVSNDALPMPIEETISKAKGQPREPQVYTLPPSRCELTKNQVSLSCAVKGFYPSDIAVEWESNGQPENNYKTTPPVLDSDGSFFLVSKLTVDKSRWQQGNVFSCSVMHEALHNHYTQKSLSLSP heavy 2: QDQLVQSGAEVKKPGASVKVSCKASGFNIKDTYIQWVRQAPGQGLEWMGRIDPLRKQTKYREKFEGRVTITADTSTNTAYMELSSLRSEDTAVYYCVRSGREFDYWGQGTLVTVSSASTKGPSVFPLAPSSKSTSGGTAALGCLVKDYFPEPVTVSWNSGALTSGVHTFPAVLQSSGLYSLSSVVTVPSSSLGTQTYICNVNHKPSNTKVDKKVEPKSCDKTHTCPPCPAPEYQWGPMVFLFPPKPKDTLMISRTPEVTCVVVDVSDEEPEVKFNWYVDGVEVHNAKTKPREEQYNATYRVVSVLTVLHQDWLNGKEYKCKVSNKALPAPIEKTISKAKGQPREPQVCTLPPSRDELTKNQVSLWCLVKGFYPSDIAVEWESNGQPENNYKTTPPVLDSDGSFFLYSKLTVDKSRWQQGNVFSCSVMHEALHNHYTQKSLSLSP light: DIQMTQSPSSLSASVGDRVTITCRASQDIHKYIAWYQQKPGQAPRLLIQYTSTLQPGVPSRFSGSGSGTDYTFTISSLQPEDIATYYCLQYEQLRTFGGGTKVEIKRTVAAPSVFIFPPSDEQLKSGTASVVCLLNNFYPREAKVQWKVDNALQSGNSQESVTEQDSKDSTYSLSSTLTLSKADYEKHKVYACEVTHQGLSSPVTKSFNRGEC	2.4 nM
HI076-L3-6 (antibody, human IgG1, kappa, heterodimerized anti-EREG antibody: altered H240-Hl076 chain (Gly/Ser peptide in loop) with H240-Kn125 and L73-k0; also called Hl076-L3-6) heavy 1: QDQLVQSGAEVKKPGASVKVSCKASGFNIKDTYIQWVRQAPGQGLEWMGRIDPLRKQTKYREKFEGRVTITADTSTNTAYMELSSLRSEDTAVYYCVRSGREFDYWGQGTLVTVSSASTKGPSVFPLAPSSKSTSGGTAALGCLVKDYFPEPVTVSWNSGALTSGVHTFPAVLQSSGLYSLSSVVTVPSSSLGTQTYICNVNHKPSNTKVDKKVEPKSCDKTHTCPPCPAPELLGGPSVFLFPPKPKDTLMISRTPEVTCVVVDVSHEEPEVKFNWYVDGVEVHNAKTKPREEQYNSTGGSGGSYRVVSVLTVLHQDWLNGKEYKCKVSNDALPMPIEETISKAKGQPREPQVYTLPPSRCELTKNQVSLSCAVKGFYPSDIAVEWESNGQPENNYKTTPPVLDSDGSFFLVSKLTVDKSRWQQGNVFSCSVMHEALHNHYTQKSLSLSP heavy 2: QDQLVQSGAEVKKPGASVKVSCKASGFNIKDTYIQWVRQAPGQGLEWMGRIDPLRKQTKYREKFEGRVTITADTSTNTAYMELSSLRSEDTAVYYCVRSGREFDYWGQGTLVTVSSASTKGPSVFPLAPSSKSTSGGTAALGCLVKDYFPEPVTVSWNSGALTSGVHTFPAVLQSSGLYSLSSVVTVPSSSLGTQTYICNVNHKPSNTKVDKKVEPKSCDKTHTCPPCPAPEYQWGPMVFLFPPKPKDTLMISRTPEVTCVVVDVSDEEPEVKFNWYVDGVEVHNAKTKPREEQYNATYRVVSVLTVLHQDWLNGKEYKCKVSNKALPAPIEKTISKAKGQPREPQVCTLPPSRDELTKNQVSLWCLVKGFYPSDIAVEWESNGQPENNYKTTPPVLDSDGSFFLYSKLTVDKSRWQQGNVFSCSVMHEALHNHYTQKSLSLSP light: DIQMTQSPSSLSASVGDRVTITCRASQDIHKYIAWYQQKPGQAPRLLIQYTSTLQPGVPSRFSGSGSGTDYTFTISSLQPEDIATYYCLQYEQLRTFGGGTKVEIKRTVAAPSVFIFPPSDEQLKSGTASVVCLLNNFYPREAKVQWKVDNALQSGNSQESVTEQDSKDSTYSLSSTLTLSKADYEKHKVYACEVTHQGLSSPVTKSFNRGEC	7.2 nM

Now from value to binder:

Kd	Binder
2.9 nM	HI076-L3-3 (antibody, human IgG1, kappa, heterodimerized anti-EREG antibody: altered H240-Hl076 chain (Gly/Ser peptide in loop) with H240-Kn125 and L73-k0; also called Hl076-L3-3) heavy 1: QDQLVQSGAEVKKPGASVKVSCKASGFNIKDTYIQWVRQAPGQGLEWMGRIDPLRKQTKYREKFEGRVTITADTSTNTAYMELSSLRSEDTAVYYCVRSGREFDYWGQGTLVTVSSASTKGPSVFPLAPSSKSTSGGTAALGCLVKDYFPEPVTVSWNSGALTSGVHTFPAVLQSSGLYSLSSVVTVPSSSLGTQTYICNVNHKPSNTKVDKKVEPKSCDKTHTCPPCPAPELLGGPSVFLFPPKPKDTLMISRTPEVTCVVVDVSHEEPEVKFNWYVDGVEVHNAKTKPREEQYNSTGGSYRVVSVLTVLHQDWLNGKEYKCKVSNDALPMPIEETISKAKGQPREPQVYTLPPSRCELTKNQVSLSCAVKGFYPSDIAVEWESNGQPENNYKTTPPVLDSDGSFFLVSKLTVDKSRWQQGNVFSCSVMHEALHNHYTQKSLSLSP heavy 2: QDQLVQSGAEVKKPGASVKVSCKASGFNIKDTYIQWVRQAPGQGLEWMGRIDPLRKQTKYREKFEGRVTITADTSTNTAYMELSSLRSEDTAVYYCVRSGREFDYWGQGTLVTVSSASTKGPSVFPLAPSSKSTSGGTAALGCLVKDYFPEPVTVSWNSGALTSGVHTFPAVLQSSGLYSLSSVVTVPSSSLGTQTYICNVNHKPSNTKVDKKVEPKSCDKTHTCPPCPAPEYQWGPMVFLFPPKPKDTLMISRTPEVTCVVVDVSDEEPEVKFNWYVDGVEVHNAKTKPREEQYNATYRVVSVLTVLHQDWLNGKEYKCKVSNKALPAPIEKTISKAKGQPREPQVCTLPPSRDELTKNQVSLWCLVKGFYPSDIAVEWESNGQPENNYKTTPPVLDSDGSFFLYSKLTVDKSRWQQGNVFSCSVMHEALHNHYTQKSLSLSP light: DIQMTQSPSSLSASVGDRVTITCRASQDIHKYIAWYQQKPGQAPRLLIQYTSTLQPGVPSRFSGSGSGTDYTFTISSLQPEDIATYYCLQYEQLRTFGGGTKVEIKRTVAAPSVFIFPPSDEQLKSGTASVVCLLNNFYPREAKVQWKVDNALQSGNSQESVTEQDSKDSTYSLSSTLTLSKADYEKHKVYACEVTHQGLSSPVTKSFNRGEC
7.3 nM	HI076-L3-9 (antibody, human IgG1, kappa, heterodimerized anti-EREG antibody: altered H240-Hl076 chain (Gly/Ser peptide in loop) with H240-Kn125 and L73-k0; also called Hl076-L3-9) heavy 1: QDQLVQSGAEVKKPGASVKVSCKASGFNIKDTYIQWVRQAPGQGLEWMGRIDPLRKQTKYREKFEGRVTITADTSTNTAYMELSSLRSEDTAVYYCVRSGREFDYWGQGTLVTVSSASTKGPSVFPLAPSSKSTSGGTAALGCLVKDYFPEPVTVSWNSGALTSGVHTFPAVLQSSGLYSLSSVVTVPSSSLGTQTYICNVNHKPSNTKVDKKVEPKSCDKTHTCPPCPAPELLGGPSVFLFPPKPKDTLMISRTPEVTCVVVDVSHEEPEVKFNWYVDGVEVHNAKTKPREEQYNSTGGSGGSGGSYRVVSVLTVLHQDWLNGKEYKCKVSNDALPMPIEETISKAKGQPREPQVYTLPPSRCELTKNQVSLSCAVKGFYPSDIAVEWESNGQPENNYKTTPPVLDSDGSFFLVSKLTVDKSRWQQGNVFSCSVMHEALHNHYTQKSLSLSP heavy 2: QDQLVQSGAEVKKPGASVKVSCKASGFNIKDTYIQWVRQAPGQGLEWMGRIDPLRKQTKYREKFEGRVTITADTSTNTAYMELSSLRSEDTAVYYCVRSGREFDYWGQGTLVTVSSASTKGPSVFPLAPSSKSTSGGTAALGCLVKDYFPEPVTVSWNSGALTSGVHTFPAVLQSSGLYSLSSVVTVPSSSLGTQTYICNVNHKPSNTKVDKKVEPKSCDKTHTCPPCPAPEYQWGPMVFLFPPKPKDTLMISRTPEVTCVVVDVSDEEPEVKFNWYVDGVEVHNAKTKPREEQYNATYRVVSVLTVLHQDWLNGKEYKCKVSNKALPAPIEKTISKAKGQPREPQVCTLPPSRDELTKNQVSLWCLVKGFYPSDIAVEWESNGQPENNYKTTPPVLDSDGSFFLYSKLTVDKSRWQQGNVFSCSVMHEALHNHYTQKSLSLSP light: DIQMTQSPSSLSASVGDRVTITCRASQDIHKYIAWYQQKPGQAPRLLIQYTSTLQPGVPSRFSGSGSGTDYTFTISSLQPEDIATYYCLQYEQLRTFGGGTKVEIKRTVAAPSVFIFPPSDEQLKSGTASVVCLLNNFYPREAKVQWKVDNALQSGNSQESVTEQDSKDSTYSLSSTLTLSKADYEKHKVYACEVTHQGLSSPVTKSFNRGEC
